{"source": "patent US20110131669A1", "key": {"[1]": {"biological_target": "mAb R24 (anti-GD3 monoclonal antibody, IgG3)", "test": "competitive ELISA: BEC2 pre-incubated with mAb R24 (30 min), remaining R24 binding to plate coated with 0.1 µg GD3 ganglioside"}, "[2]": {"biological_target": "mAb R24 (anti-GD3 monoclonal antibody, IgG3)", "test": "competitive ELISA: peptide pre-incubated with mAb R24, remaining R24 binding to GD3-coated plate"}, "[3]": {"biological_target": "mAb R24 (anti-GD3 monoclonal antibody, IgG3)", "test": "competitive ELISA: peptide pre-incubated with mAb R24 (30 min), remaining R24 binding to plate coated with 0.1 µg GD3 ganglioside"}}}
{"molecule": "mAb BEC2 (anti-idiotypic monoclonal antibody, IgG2b)", "values": [{"measurement": "IC50", "setting": "[1]", "result": 10, "unit": "µg/mL"}, {"measurement": "concentration giving full inhibition", "setting": "[1]", "result": 60, "unit": "µg/mL"}]}
{"molecule": "SVAVPPPADDPSWRY", "note": "[GD3-like peptide PGD3-6]", "values": [{"measurement": "concentration giving full inhibition", "setting": "[2]", "result": "> 600", "unit": "pmol/mL"}, {"measurement": "IC50", "setting": "[3]", "result": 250, "unit": "nM"}]}
{"molecule": "GLAPPDYAERFFLIS", "note": "[GD3-like peptide PGD3-3]", "values": [{"measurement": "concentration giving full inhibition", "setting": "[2]", "result": "> 600", "unit": "pmol/mL"}, {"measurement": "IC50", "setting": "[3]", "result": 300, "unit": "nM"}]}
{"molecule": "RHAYRSMAEWGFLYS", "note": "[GD3-like peptide PGD3-4]", "values": [{"measurement": "concentration giving full inhibition", "setting": "[2]", "result": "> 600", "unit": "pmol/mL"}, {"measurement": "IC50", "setting": "[3]", "result": 150, "unit": "nM"}]}
{"molecule": "ACTPYAMLPGCK", "note": "[GD3-like peptide PGD3-5]", "values": [{"measurement": "concentration giving full inhibition", "setting": "[2]", "result": "> 600", "unit": "pmol/mL"}, {"measurement": "IC50", "setting": "[3]", "result": 100, "unit": "nM"}]}
